Data reported in ChEMBL document CHEMBL3525955, “Glucuronidation of the red clover isoflavone irilone by liver microsomes from different species and human UDP-glucuronosyltransferases” (Drug Metab Dispos, 2011).
Blank lines part the entries; values can stand above or below the molecule they belong to.

Legend:
Format in all cases: ADME
[1] = target: T1, UDP-glucuronosyltransferase 1A10 (Homo sapiens, UniProt Q9HAW8); assay: Drug level assessed as human recombinant UGT1A10-mediated glucuronidation treated with irilone incubated for 5 mins prior to UDPGA addition measured after 90 mins by HPLC-DAD analysis; conditions: recombinant enzyme, 1.5 h
T1 sequence (Q9HAW8 whole entry): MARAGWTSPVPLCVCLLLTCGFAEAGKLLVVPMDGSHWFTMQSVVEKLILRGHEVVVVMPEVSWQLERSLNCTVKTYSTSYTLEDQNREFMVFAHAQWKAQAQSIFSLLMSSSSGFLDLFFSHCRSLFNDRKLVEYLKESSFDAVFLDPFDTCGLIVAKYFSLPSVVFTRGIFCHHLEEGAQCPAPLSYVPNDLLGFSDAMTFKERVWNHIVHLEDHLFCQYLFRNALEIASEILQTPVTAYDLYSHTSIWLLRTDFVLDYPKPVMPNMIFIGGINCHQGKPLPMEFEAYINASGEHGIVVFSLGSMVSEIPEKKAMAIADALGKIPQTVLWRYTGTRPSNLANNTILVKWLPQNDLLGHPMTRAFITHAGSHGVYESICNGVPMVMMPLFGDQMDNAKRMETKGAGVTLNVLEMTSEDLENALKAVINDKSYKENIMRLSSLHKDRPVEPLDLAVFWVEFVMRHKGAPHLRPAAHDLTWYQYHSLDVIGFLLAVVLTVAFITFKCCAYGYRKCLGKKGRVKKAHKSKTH

[2] = target: T2, UDP-glucuronosyltransferase 1A8 (Homo sapiens, UniProt Q9HAW9); assay: Drug level assessed as human recombinant UGT1A8-mediated glucuronidation treated with 25 uM irilone incubated for 5 mins prior to UDPGA addition measured after 90 mins by HPLC-DAD analysis; conditions: recombinant enzyme, 1.5 h
T2 sequence (Q9HAW9 whole entry): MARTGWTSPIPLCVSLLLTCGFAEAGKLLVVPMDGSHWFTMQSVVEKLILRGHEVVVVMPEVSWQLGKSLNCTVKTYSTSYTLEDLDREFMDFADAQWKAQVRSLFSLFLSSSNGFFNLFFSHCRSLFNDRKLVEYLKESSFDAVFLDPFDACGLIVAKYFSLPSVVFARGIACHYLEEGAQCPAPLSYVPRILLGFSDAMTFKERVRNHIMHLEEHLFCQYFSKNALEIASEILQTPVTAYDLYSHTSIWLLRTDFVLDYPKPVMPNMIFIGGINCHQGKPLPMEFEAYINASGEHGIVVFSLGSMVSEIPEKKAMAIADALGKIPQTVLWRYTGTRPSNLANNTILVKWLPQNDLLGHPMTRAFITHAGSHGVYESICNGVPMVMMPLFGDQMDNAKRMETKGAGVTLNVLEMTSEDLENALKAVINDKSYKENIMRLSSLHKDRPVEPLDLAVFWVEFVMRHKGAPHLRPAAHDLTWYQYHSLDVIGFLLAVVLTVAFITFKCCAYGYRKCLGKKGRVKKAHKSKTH

[3] = target: T3, UDP-glucuronosyltransferase 1A7 (Homo sapiens, UniProt Q9HAW7); assay: Drug level assessed as human recombinant UGT1A7-mediated glucuronidation treated with 25 uM irilone incubated for 5 mins prior to UDPGA addition measured after 90 mins by HPLC-DAD analysis; conditions: recombinant enzyme, 1.5 h
T3 sequence (Q9HAW7 whole entry): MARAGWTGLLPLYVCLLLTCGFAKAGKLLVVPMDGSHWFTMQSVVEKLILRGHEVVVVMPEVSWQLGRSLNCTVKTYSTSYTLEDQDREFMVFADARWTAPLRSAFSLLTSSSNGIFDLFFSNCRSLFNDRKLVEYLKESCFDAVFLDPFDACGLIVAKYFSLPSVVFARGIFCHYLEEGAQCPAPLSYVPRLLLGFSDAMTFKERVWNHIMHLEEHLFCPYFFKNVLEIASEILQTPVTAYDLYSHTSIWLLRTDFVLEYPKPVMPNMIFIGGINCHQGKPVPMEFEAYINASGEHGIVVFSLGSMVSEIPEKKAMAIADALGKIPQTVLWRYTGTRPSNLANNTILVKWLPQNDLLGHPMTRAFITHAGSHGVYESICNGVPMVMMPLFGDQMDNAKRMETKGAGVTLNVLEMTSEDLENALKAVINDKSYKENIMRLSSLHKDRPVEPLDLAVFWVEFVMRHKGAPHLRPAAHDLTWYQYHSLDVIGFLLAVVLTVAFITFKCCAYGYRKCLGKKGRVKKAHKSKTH

[4] = target: T4, UDP-glucuronosyltransferase 1A1 (Homo sapiens, UniProt P22309); assay: Drug level assessed as human recombinant UGT1A1-mediated glucuronidation treated with 25 uM irilone incubated for 5 mins prior to UDPGA addition measured after 90 mins by HPLC-DAD analysis; conditions: recombinant enzyme, 1.5 h
T4 sequence (P22309 whole entry): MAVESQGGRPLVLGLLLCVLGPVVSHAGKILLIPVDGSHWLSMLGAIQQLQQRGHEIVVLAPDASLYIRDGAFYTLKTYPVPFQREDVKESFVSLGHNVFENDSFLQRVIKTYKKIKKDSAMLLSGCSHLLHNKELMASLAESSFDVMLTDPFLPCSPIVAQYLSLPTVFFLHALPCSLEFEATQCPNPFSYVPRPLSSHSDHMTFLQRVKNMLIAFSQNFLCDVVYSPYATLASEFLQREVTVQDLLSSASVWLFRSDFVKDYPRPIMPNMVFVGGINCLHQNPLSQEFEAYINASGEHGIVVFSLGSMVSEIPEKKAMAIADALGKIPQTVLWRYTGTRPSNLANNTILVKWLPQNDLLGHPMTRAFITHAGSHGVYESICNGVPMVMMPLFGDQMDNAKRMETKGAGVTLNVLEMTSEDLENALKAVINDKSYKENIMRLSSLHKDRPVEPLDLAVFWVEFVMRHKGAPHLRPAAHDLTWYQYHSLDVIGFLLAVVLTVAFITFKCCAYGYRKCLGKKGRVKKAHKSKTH

[5] = substrate: O=c1c(-c2ccc(O)cc2)coc2cc3c(c(O)c12)OCO3; assay: Activity of human recombinant UGT1A7 assessed as IRI-O-5-monoglucuronide formation incubated for 5 mins prior to UDPGA addition measured after 90 mins by Eadie-Hoftsee plot analysis
[6] = substrate: O=c1c(-c2ccc(O)cc2)coc2cc3c(c(O)c12)OCO3; assay: Activity of human recombinant UGT1A9 assessed as IRI-O-5-monoglucuronide formation incubated for 5 mins prior to UDPGA addition measured after 90 mins by Eadie-Hoftsee plot analysis
[7] = substrate: O=c1c(-c2ccc(O)cc2)coc2cc3c(c(O)c12)OCO3; assay: Activity of human recombinant UGT1A1 assessed as IRI-O-5-monoglucuronide formation incubated for 5 mins prior to UDPGA addition measured after 90 mins by Eadie-Hoftsee plot analysis
[8] = substrate: O=c1c(-c2ccc(O)cc2)coc2cc3c(c(O)c12)OCO3; assay: Activity of human recombinant UGT1A1 assessed as IRI-O-4'-monoglucuronide formation incubated for 5 mins prior to UDPGA addition measured after 90 mins by Eadie-Hoftsee plot analysis
[9] = substrate: O=c1c(-c2ccc(O)cc2)coc2cc3c(c(O)c12)OCO3; assay: Activity of human recombinant UGT1A8 assessed as IRI-O-4'-monoglucuronide formation incubated for 5 mins prior to UDPGA addition measured after 90 mins by Eadie-Hoftsee plot analysis
[10] = substrate: O=c1c(-c2ccc(O)cc2)coc2cc3c(c(O)c12)OCO3; assay: Activity of human recombinant UGT1A8 assessed as IRI-O-5-monoglucuronide formation incubated for 5 mins prior to UDPGA addition measured after 90 mins by Eadie-Hoftsee plot analysis
[11] = substrate: O=c1c(-c2ccc(O)cc2)coc2cc3c(c(O)c12)OCO3; assay: Activity of human recombinant UGT1A10 assessed as IRI-O-4'-monoglucuronide formation incubated for 5 mins prior to UDPGA addition measured after 90 mins by Eadie-Hoftsee plot analysis

Drug metabolism [1]: metabolite_detected
Molecule: COc1c2c(cc3occ(-c4ccc(O[C@@H]5O[C@H](C(=O)O)[C@@H](O)[C@H](O)[C@H]5O)cc4)c(=O)c13)OCO2

Drug metabolism [2]: metabolite_detected | Drug metabolism [3]: metabolite_detected | Drug metabolism [4]: metabolite_detected | Drug metabolism [1]: metabolite_detected
Molecule: O=C(O)[C@H]1O[C@@H](Oc2ccc(-c3coc4cc5c(c(O)c4c3=O)OCO5)cc2)[C@H](O)[C@@H](O)[C@@H]1O

B1: UDP-glucuronosyltransferase 1A7 (Homo sapiens) (protein)
chain: T3 sequence (Q9HAW7 whole entry)
Km [5]: 9.4 µM | Vmax [5]: 4e-05 µmol/min/mg

B2: UDP-glucuronosyltransferase 1A9 (Homo sapiens) (protein)
chain: MACTGWTSPLPLCVCLLLTCGFAEAGKLLVVPMDGSHWFTMRSVVEKLILRGHEVVVVMPEVSWQLGRSLNCTVKTYSTSYTLEDLDREFKAFAHAQWKAQVRSIYSLLMGSYNDIFDLFFSNCRSLFKDKKLVEYLKESSFDAVFLDPFDNCGLIVAKYFSLPSVVFARGILCHYLEEGAQCPAPLSYVPRILLGFSDAMTFKERVRNHIMHLEEHLLCHRFFKNALEIASEILQTPVTEYDLYSHTSIWLLRTDFVLDYPKPVMPNMIFIGGINCHQGKPLPMEFEAYINASGEHGIVVFSLGSMVSEIPEKKAMAIADALGKIPQTVLWRYTGTRPSNLANNTILVKWLPQNDLLGHPMTRAFITHAGSHGVYESICNGVPMVMMPLFGDQMDNAKRMETKGAGVTLNVLEMTSEDLENALKAVINDKSYKENIMRLSSLHKDRPVEPLDLAVFWVEFVMRHKGAPHLRPAAHDLTWYQYHSLDVIGFLLAVVLTVAFITFKCCAYGYRKCLGKKGRVKKAHKSKTH
Km [6]: 5 µM | Vmax [6]: 0.00027 µmol/min/mg

B3: UDP-glucuronosyltransferase 1A1 (Homo sapiens) (protein)
chain: T4 sequence (P22309 whole entry)
Km [7]: 24.6 µM | Vmax [7]: 0.00067 µmol/min/mg | Km [8]: 32.9 µM | Vmax [8]: 0.00014 µmol/min/mg

B4: UDP-glucuronosyltransferase 1A8 (Homo sapiens) (protein)
chain: T2 sequence (Q9HAW9 whole entry)
Km [9]: 87.5 µM | Vmax [9]: 0.00054 µmol/min/mg | Km [10]: 70.9 µM | Vmax [10]: 0.001 µmol/min/mg

B5: UDP-glucuronosyltransferase 1A10 (Homo sapiens) (protein)
chain: T1 sequence (Q9HAW8 whole entry)
Km [11]: 10.3 µM | Vmax [11]: 0.00103 µmol/min/mg
